“And” between values parts separate entries of the source, which are not always exact repeats. Equal values may be shown once. Read-outs that look alike come from different tables or passages of the source. Peptide text beside a SMILES is read from it.
Experiments:
[1] = Biodistribution in SCID mice bearing PC-3 xenografts; assay type: in vivo; details: female, mouse, pancreas, total radioactivity, average ± sd; for tissue uptake at 4 h: 4 h pi; for tissue uptake at 24 h: 24 h pi, n = 4, read-out: Pancreatic uptake, 24 h pi
Protocol: A suspension containing freshly harvested human PC-3 cells (≈150 μL of a ≈1.2 × 10^7 cells) was subcutaneously injected in the flanks of female SCID mice (15 ± 3 g, six weeks of age at the day of arrival, NCSR “Demokritos” Animal House Facility).
Animals were euthanized at 4 and 24 h pi and dissected; samples of blood, tumors and organs of interest were collected, weighed and measured for radioactivity in the gamma counter. Intestines and stomach were not emptied of their contents. Data was calculated as percent injected dose per gram tissue (%ID/g) with the aid of standard solutions and represent mean values±sd, n = 4.

[2] = In vivo stability in peripheral mouse blood (radio-HPLC); parameters: species or system mice; details: blood 5 min pi; for Intact radiotracer in mouse blood, representative radiochromatogram, PA-coinjection: coinjection of 300 µg phosphoramidon (PA), HPLC system 2, single representative sample (Figure 3c,d); for Intact radiotracer in mouse blood, representative radiochromatogram: without PA-coinjection, HPLC system 2, single representative sample (Figure 3a,b); for Intact radiotracer in peripheral mouse blood: healthy male Swiss albino mice, iv 3 nmol peptide, without PA, radio-HPLC, mean ± sd, n = 3
Protocol: For stability experiments (approved protocol # 1609, Prefecture of Attica), healthy male Swiss albino mice (30 ± 5 g, NCSR “Demokritos” Animal House Facility) were used. The radioligand, ^111In-SB3 or ^111In-SB4, was injected as a 100 μL bolus (11–22 MBq, 3 nmol total peptide) in the tail vein together with injection solution (100 µL; control) or with a phosphoramidon (PA)-solution (100 µL injection solution containing 300 µg PA). Animals were euthanized and blood (0.5–1 mL) was directly withdrawn from the heart and transferred in a pre-chilled EDTA-containing Eppendorf tube on ice. Blood samples were centrifuged for 10 min at 2000 g/4 °C and plasma was collected. After addition of an equal volume of ice-cold MeCN the mixture was centrifuged for 10 min at 15,000 g/4 °C. The supernatant was concentrated under a N2-flux at 40 °C to 0.05-0.1 mL, diluted with saline (0.4 mL), filtered through a 0.22 μm Millex GV filter (Millipore, Milford, USA) and analyzed by RP-HPLC. The Symmetry Shield RP18 (5 μm, 3.9 mm × 20 mm) column was eluted at a flow rate of 1.0 mL/min with the following linear gradient (system 2): 0% B at 0 min to 10% B in 10 min and then in 40 min to 30% B; A = 20 mM ammonium acetate and B = MeCN. The tR of the intact radiopeptide was determined by coinjection with the ^111In-SB3 or ^111In-SB4 reference in the HPLC.

[3] = small library of ^99mTc-labeled analogs with acyclic tetraamine chelator; cited from earlier work
From the text: Earlier work on the development of GRPR-antagonists generated a solid body of structure-activity relationships data, pinpointing at important factors for sustained in vivo action. […] Metabolic stability could be enhanced by suitable structural modifications, including DAla^11/Gly^11 in BBN-based or DAla^24/Gly^24 in GRP-based peptide ligands.

GRPR = GRPR (Homo sapiens, UniProt P30550); experiment: biochemical
Protocol: Human androgen-independent prostate adenocarcinoma PC-3 cells endogenously expressing the human GRPR (LGC Promochem, Teddington, UK) were used in the present study [24]. Cells were cultured in Roswell Park Memorial Institute (RPMI)-1640 medium, supplemented with 10% heat-inactivated fetal bovine serum (FBS), 100 U/mL penicillin and 100 µg/mL streptomycin, and kept in a controlled humidified atmosphere containing 5% CO2 at 37 °C. Passages were performed weekly using a trypsin/EDTA (0.05%/0.02% w/v) solution. All culture media were purchased from Gibco BRL, Life Technologies and supplements were provided by Biochrom KG Seromed.
For the assay, triplicates per concentration point (concentration range: 10^−13–10^−6 M) of each test peptide were incubated together with the radioligand (~40,000 cpm per assay tube, at a 50 pM concentration) in PC-3 cell-membrane homogenates in a total volume of 300 μL binding buffer (BB, 50 mM HEPES pH 7.4, 1% BSA, 5.5 mM MgCl2, 35 μM bacitracin) for 1 h at 22 °C in an Incubator-Orbital Shaker (MPM Instr. SrI, Italy). Binding was interrupted by ice-cold washing buffer (WB, 10 mM HEPES pH 7.4, 150 mM NaCl) and rapid filtration (Whatman GF/B filters presoaked in BB) on a Brandel Cell Harvester (Adi Hassel Ing. Büro, Munich, Germany). Filters were washed with ice-cold WB and counted in an automatic well-type gamma counter (NaI(Tl) 3´´-crystal, Cobra Packard Auto-Gamma 5000 series instrument). The half maximal inhibitory concentration (IC50) values were calculated using nonlinear regression according to a one-site model applying the PRISM 2 program (Graph Pad Software, San Diego, CA) and represent the mean±sd from three independent experiments performed in triplicate.

[4] = iv, with phosphoramidon (PA), 300 µg co-injected (NEP-inhibition), coinjection of 300 µg PA, n = 4, read-out: Pancreatic uptake, 4 h pi, PA-coinjection
[5] = iv 10 pmol peptide, control, n = 4, read-out: Pancreatic uptake, 4 h pi

GRPR, sequence (P30550 whole entry): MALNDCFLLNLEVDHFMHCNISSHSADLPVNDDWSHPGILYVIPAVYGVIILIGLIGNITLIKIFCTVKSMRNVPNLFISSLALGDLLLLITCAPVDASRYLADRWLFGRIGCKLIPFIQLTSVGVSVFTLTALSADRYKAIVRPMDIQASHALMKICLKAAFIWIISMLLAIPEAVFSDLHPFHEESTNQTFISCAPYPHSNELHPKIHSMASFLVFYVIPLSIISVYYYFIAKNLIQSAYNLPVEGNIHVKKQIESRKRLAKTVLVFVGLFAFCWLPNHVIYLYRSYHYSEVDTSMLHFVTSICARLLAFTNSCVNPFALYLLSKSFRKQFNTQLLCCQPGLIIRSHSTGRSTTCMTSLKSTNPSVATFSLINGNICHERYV

Row | Compound | tissue uptake at 4 h [1, 4] [%ID/g] | tissue uptake at 24 h ([1]; iv 10 pmol peptide) [%ID/g] | tissue uptake at 4 h [1, 5] [%ID/g] | Intact radiotracer in mouse blood, representative radiochromatogram, PA-coinjection [2] [% intact radiotracer] | Intact radiotracer in mouse blood, representative radiochromatogram [2] [% intact radiotracer] | Intact radiotracer in peripheral mouse blood [2] [% intact] | Metabolic stability, rank within the library [3] | IC50 (GRPR)
1 | CCNC(=O)[C@H](CC(C)C)NC(=O)[C@H](Cc1c[nH]cn1)NC(=O)[C@@H](C)NC(=O)[C@@H](NC(=O)[C@H](C)NC(=O)[C@H](Cc1c[nH]c2ccccc12)NC(=O)[C@H](CCC(N)=O)NC(=O)[C@@H](Cc1ccccc1)NC(=O)COCC(=O)Nc1ccc(CNC(=O)CN2CCN(CC(=O)O)CCN(CC(=O)O)CCN(CC(=O)O)CC2)cc1)C(C)C [^111In-SB4, metal not drawn] (HELM PEPTIDE1{[O=C(O)CN1CCN(CC(=O)O)CCN(CC(=O)NCc2ccc(NC(=O)COCC(=O)[*:2])cc2)CCN(CC(=O)O)CC1].[dF].Q.W.A.V.[dA].H.L.[CCN[*:1]]}$$$$V2.0) | 4.9 ± 0.7 | 0.1 | 1.6 ± 0.8 | 99.7 | 77 | 80 ± 3 |  | 
2 | ^99mTc-[N4-p-aminomethylaniline-diglycolic acid-DPhe^6,DAla^11,Leu^13-NHEt]BBN(6-13) |  |  |  |  |  |  | highest metabolic stability | 
3 | CCNC(=O)[C@H](CC(C)C)NC(=O)[C@H](Cc1c[nH]cn1)NC(=O)CNC(=O)[C@@H](NC(=O)[C@H](C)NC(=O)[C@H](Cc1c[nH]c2ccccc12)NC(=O)[C@H](CCC(N)=O)NC(=O)[C@@H](Cc1ccccc1)NC(=O)COCC(=O)Nc1ccc(CNC(=O)CN2CCN(CC(=O)O)CCN(CC(=O)O)CCN(CC(=O)O)CC2)cc1)C(C)C [^111In-SB3, metal not drawn] | 33.1 ± 6.2 | 0.6 ± 0.1 | 3.5 ± 0.4 | 98.9 | 55 | 56 ± 2 |  | 
4 | CCNC(=O)[C@H](CC(C)C)NC(=O)[C@H](Cc1c[nH]cn1)NC(=O)CNC(=O)[C@@H](NC(=O)[C@H](C)NC(=O)[C@H](Cc1c[nH]c2ccccc12)NC(=O)[C@H](CCC(N)=O)NC(=O)[C@@H](Cc1ccccc1)NC(=O)COCC(=O)Nc1ccc(CNC(=O)CN2CCN(CC(=O)O)CCN(CC(=O)O)CCN(CC(=O)O)CC2)cc1)C(C)C [SB3] |  |  |  |  |  |  |  | 0.0046 ± 0.0003 µM
5 | CCNC(=O)[C@H](CC(C)C)NC(=O)[C@H](Cc1c[nH]cn1)NC(=O)[C@@H](C)NC(=O)[C@@H](NC(=O)[C@H](C)NC(=O)[C@H](Cc1c[nH]c2ccccc12)NC(=O)[C@H](CCC(N)=O)NC(=O)[C@@H](Cc1ccccc1)NC(=O)COCC(=O)Nc1ccc(CNC(=O)CN2CCN(CC(=O)O)CCN(CC(=O)O)CCN(CC(=O)O)CC2)cc1)C(C)C [SB4, DOTA-p-aminomethylaniline-diglycolic acid-DPhe-Gln-Trp-Ala-Val-DAla-His- Leu-NHEt] (HELM PEPTIDE1{[O=C(O)CN1CCN(CC(=O)O)CCN(CC(=O)NCc2ccc(NC(=O)COCC(=O)[*:2])cc2)CCN(CC(=O)O)CC1].[dF].Q.W.A.V.[dA].H.L.[CCN[*:1]]}$$$$V2.0) |  |  |  |  |  |  |  | 0.0112 µM and 0.0107 µM
